# B1: Meiosis-inducing protein 1 (Saccharomyces cerevisiae), P21190 (parent)
# chain: MQADMHGKLHAALEDGFFLFPFEQQQQPNIYYDTTTDQEDRPCFSFGSTISPRSWHFEKSDKIASSQLQNLVHTQPIHLINPQILFNEEFLNLENIDSQPISKETKTTKDCTMATGPERGKKSSESTRSSSLSSLFSNDESASTFHSSFNNHDNFQKSNRNGDDIDISDTIKYETNTNAQKDIKIFQENFEFNEFPYTQDFYPYTTNYTYSKPTNIHESINSKNTDSYSQYQDQFPPHTDNIHSFNNRHYSNHKSTNCNYYNNTSNNNNASDNVYEADPFIDEPQVPSYYYPLEIAFDVEKSPPPSLQKLNSKELEFLKKLNSKLSRYAAAYSFSSSNDQDYYDKVRFQEISYKFSKTYS
# partner: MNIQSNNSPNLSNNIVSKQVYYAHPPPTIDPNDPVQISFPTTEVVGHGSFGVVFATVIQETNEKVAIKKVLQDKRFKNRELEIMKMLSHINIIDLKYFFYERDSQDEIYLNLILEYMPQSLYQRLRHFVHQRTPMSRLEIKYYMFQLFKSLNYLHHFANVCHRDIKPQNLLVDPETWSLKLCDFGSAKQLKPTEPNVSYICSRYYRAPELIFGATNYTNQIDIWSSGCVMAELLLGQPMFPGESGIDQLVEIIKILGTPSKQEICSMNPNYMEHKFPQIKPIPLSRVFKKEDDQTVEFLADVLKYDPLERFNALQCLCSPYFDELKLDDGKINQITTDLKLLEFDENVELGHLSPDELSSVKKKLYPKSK
# B2: Meiosis-inducing protein 1 (Saccharomyces cerevisiae), P21190 (parent)
# chain: B1 chain
# partner: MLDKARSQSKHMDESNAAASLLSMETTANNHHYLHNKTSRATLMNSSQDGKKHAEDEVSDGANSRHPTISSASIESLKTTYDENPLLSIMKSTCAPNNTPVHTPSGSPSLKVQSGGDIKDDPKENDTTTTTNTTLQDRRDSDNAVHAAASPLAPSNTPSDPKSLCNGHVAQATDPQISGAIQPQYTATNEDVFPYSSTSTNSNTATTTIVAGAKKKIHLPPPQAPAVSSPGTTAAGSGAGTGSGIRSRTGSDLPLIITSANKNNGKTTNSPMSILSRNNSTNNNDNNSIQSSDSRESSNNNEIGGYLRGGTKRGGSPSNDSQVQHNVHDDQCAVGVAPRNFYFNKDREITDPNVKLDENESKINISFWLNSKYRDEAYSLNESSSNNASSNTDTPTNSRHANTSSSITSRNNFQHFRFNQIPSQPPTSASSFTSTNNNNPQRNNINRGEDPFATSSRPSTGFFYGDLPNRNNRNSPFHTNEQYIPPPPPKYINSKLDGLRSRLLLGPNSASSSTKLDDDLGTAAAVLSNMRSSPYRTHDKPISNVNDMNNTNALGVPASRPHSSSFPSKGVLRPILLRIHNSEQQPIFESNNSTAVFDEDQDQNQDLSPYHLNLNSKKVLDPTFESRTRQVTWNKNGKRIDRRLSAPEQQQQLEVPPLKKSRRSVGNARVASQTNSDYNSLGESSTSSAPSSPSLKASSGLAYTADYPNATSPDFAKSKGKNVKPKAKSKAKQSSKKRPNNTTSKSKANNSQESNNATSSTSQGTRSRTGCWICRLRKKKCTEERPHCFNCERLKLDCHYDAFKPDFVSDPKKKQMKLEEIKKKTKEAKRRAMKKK
# Variants of: B1
# Conditions: with rim11_yeast RIM11, P38615
row,effect of a mutation on the interaction,Variant
1,decreasing interaction strength,MQADMHGKLHAALEDGFFLFPFEQQQQPNIYYDTTTDQEDRPCFSFGSTISPRSWHFEKSDKIASSQLQNLVHTQPIHLINPQILFNEEFLNLENIDSQPISKETKTTKDCTMATGPERGKKSSESTRSSSLSSLFSNDESASTFHSSFNNHDNFQKSNRNGDDIDISDTIKYETNTNAQKDIKIFQENFEFNEFPYTQDFYPYTTNYTYSKPTNIHESINSKNTDSYSQYQDQFPPHTDNIHSFNNRHYSNHKSTNCNYYNNTSNNNNASDNVYEADPFIDEPQVPSYYYPLEIAFDVEKSPPPSLQKLNSKELEFLKKLNSKLSRYAAAYSFSSSNDQDYYDKVKFQEISYKFSKTYF [R347K;S360F]
2,decreasing interaction strength,MQADMHGKLHAALEDGFFLFPFEQQQQPNIYYDTTTDQEDRPCFSFGSTISPRSWHFEKSDKIASSQLQNLVHTQPIHLINPQILFNEEFLNLENIDSQPISKETKTTKDCTMATGPERGKKSSESTRSSSLSSLFSNDESASTFHSSFNNHDNFQKSNRNGDDIDISDTIKYETNTNAQKDIKIFQENFEFNEFPYTQDFYPYTTNYTYSKPTNIHESINSKNTDSYSQYQDQFPPHTDNIHSFNNRHYSNHKSTNCNYYNNTSNNNNASDNVYEADPFIDEPQVPSYYYPLEIAFDVEKSPPPSLQKLNSKELEFLKKFNSKLSRYAAAYSFSSSNDQDYYDKVRFQEISYKFSKTYF [L321F;S360F]
3,disrupting interaction strength,MQADMHGKLHAALEDGFFLFPFEQQQQPNIYYDTTTDQEDRPCFSFGSTISPRSWHFEKSDKIASSQLQNLVHTQPIHLINPQILFNEEFLNLENIDSQPISKETKTTKDCTMATGPERGKKSSESTRSSSLSSLFSNDESASTFHSSFNNHDNFQKSNRNGDDIDISDTIKYETNTNAQKDIKIFQENFEFNEFPYTQDFYPYTTNYTYSKPTNIHESINSKNTDSYSQYQDQFPPHTDNIHSFNNRHYSNHKSTNCNYYNNTSNNNNASDNVYEADPFIDEPQVPSYYYPLEIAFDVEKSPPPSLQKLNSKELEFLKKFNSKLSRYAAAYSFSSSNDQDYYDKVRFQEISYKFSKTYS [L321F]
4,disrupting interaction strength,MQADMHGKLHAALEDGFFLFPFEQQQQPNIYYDTTTDQEDRPCFSFGSTISPRSWHFEKSDKIASSQLQNLVHTQPIHLINPQILFNEEFLNLENIDSQPISKETKTTKDCTMATGPERGKKSSESTRSSSLSSLFSNDESASTFHSSFNNHDNFQKSNRNGDDIDISDTIKYETNTNAQKDIKIFQENFEFNEFPYTQDFYPYTTNYTYSKPTNIHESINSKNTDSYSQYQDQFPPHTDNIHSFNNRHYSNHKSTNCNYYNNTSNNNNASDNVYEADPFIDEPQVPSYYYPLEIAFDVEKSPPPSLQKLNSKELEFLKKLNSKLSRYAAAYSFSSSNDQDYYDKVKFQEISYKFSKTYS [R347K]

# Variants of: B1
# Conditions: with rim11_yeast RIM11, P38615
# Remark: another data set of the same source
row,effect of a mutation on the interaction,Variant
1,with no effect,MQADMHGKLHAALEDGFFLFPFEQQQQPNIYYDTTTDQEDRPCFSFGSTISPRSWHFEKSDKIASSQLQNLVHTQPIHLINPQILFNEEFLNLENIDSQPISKETKTTKDCTMATGPERGKKSSESTRSSSLSSLFSNDESASTFHSSFNNHDNFQKSNRNGDDIDISDTIKYETNTNAQKDIKIFQENFEFNEFPYTQDFYPYTTNYTYSKPTNIHESINSKNTDSYSQYQDQFPPHTDNIHSFNNRHYSNHKSTNCNYYNNTSNNNNASDNVYEADPFIDEPQVPSYYYPLEIAFDVEKSPPPSLQKLNSKELEFLKKLNSKLSRYAAAYSFSSSNDQDYYDKVKFQEISYKFSKTYF [R347K;S360F]
2,with no effect,MQADMHGKLHAALEDGFFLFPFEQQQQPNIYYDTTTDQEDRPCFSFGSTISPRSWHFEKSDKIASSQLQNLVHTQPIHLINPQILFNEEFLNLENIDSQPISKETKTTKDCTMATGPERGKKSSESTRSSSLSSLFSNDESASTFHSSFNNHDNFQKSNRNGDDIDISDTIKYETNTNAQKDIKIFQENFEFNEFPYTQDFYPYTTNYTYSKPTNIHESINSKNTDSYSQYQDQFPPHTDNIHSFNNRHYSNHKSTNCNYYNNTSNNNNASDNVYEADPFIDEPQVPSYYYPLEIAFDVEKSPPPSLQKLNSKELEFLKKFNSKLSRYAAAYSFSSSNDQDYYDKVRFQEISYKFSKTYF [L321F;S360F]
3,with no effect,MQADMHGKLHAALEDGFFLFPFEQQQQPNIYYDTTTDQEDRPCFSFGSTISPRSWHFEKSDKIASSQLQNLVHTQPIHLINPQILFNEEFLNLENIDSQPISKETKTTKDCTMATGPERGKKSSESTRSSSLSSLFSNDESASTFHSSFNNHDNFQKSNRNGDDIDISDTIKYETNTNAQKDIKIFQENFEFNEFPYTQDFYPYTTNYTYSKPTNIHESINSKNTDSYSQYQDQFPPHTDNIHSFNNRHYSNHKSTNCNYYNNTSNNNNASDNVYEADPFIDEPQVPSYYYPLEIAFDVEKSPPPSLQKLNSKELEFLKKLNSKLSRYAAAYSFSSSNDQDAADKVRFQEIAAKFAKAAA [Y342A;Y343A;S352A;Y353A;S356A;T358A;Y359A;S360A]

# Variants of: B2
# Conditions: with ume6_yeast UME6, P39001
row,Variant,effect of a mutation on the interaction
1,MQADMHGKLHAALEDGFFLFPFEQQQQPNIYYDTTTDQEDRPCFSFGSTISPRSWHFEKSDKIASSQLQNLVHTQPIHLINPQILFNEEFLNLENIDSQPISKETKTTKDCTMATGPERGKKSSESTRSSSLSSLFSNDESASTFHSSFNNHDNFQKSNRNGDDIDISDTIKYETNTNAQKDIKIFQENFEFNEFPYTQDFYPYTTNYTYSKPTNIHESINSKNTDSYSQYQDQFPPHTDNIHSFNNRHYSNHKSTNCNYYNNTSNNNNASDNVYEADPFIDEPQVPSYYYPLEIAFDVEKSPPPSLQKLNSKELEFLKKFNSKLSRYAAAYSFSSSNDQDYYDKVRFQEISYKFSKTYF [L321F;S360F],decreasing interaction strength
2,MQADMHGKLHAALEDGFFLFPFEQQQQPNIYYDTTTDQEDRPCFSFGSTISPRSWHFEKSDKIASSQLQNLVHTQPIHLINPQILFNEEFLNLENIDSQPISKETKTTKDCTMATGPERGKKSSESTRSSSLSSLFSNDESASTFHSSFNNHDNFQKSNRNGDDIDISDTIKYETNTNAQKDIKIFQENFEFNEFPYTQDFYPYTTNYTYSKPTNIHESINSKNTDSYSQYQDQFPPHTDNIHSFNNRHYSNHKSTNCNYYNNTSNNNNASDNVYEADPFIDEPQVPSYYYPLEIAFDVEKSPPPSLQKLNSKELEFLKKLNSKLSRYAAAYSFSSSNDQDAADKVRFQEIAAKFAKAAA [Y342A;Y343A;S352A;Y353A;S356A;T358A;Y359A;S360A],disrupting interaction strength
3,MQADMHGKLHAALEDGFFLFPFEQQQQPNIYYDTTTDQEDRPCFSFGSTISPRSWHFEKSDKIASSQLQNLVHTQPIHLINPQILFNEEFLNLENIDSQPISKETKTTKDCTMATGPERGKKSSESTRSSSLSSLFSNDESASTFHSSFNNHDNFQKSNRNGDDIDISDTIKYETNTNAQKDIKIFQENFEFNEFPYTQDFYPYTTNYTYSKPTNIHESINSKNTDSYSQYQDQFPPHTDNIHSFNNRHYSNHKSTNCNYYNNTSNNNNASDNVYEADPFIDEPQVPSYYYPLEIAFDVEKSPPPSLQKLNSKELEFLKKFNSKLSRYAAAYSFSSSNDQDYYDKVRFQEISYKFSKTYS [L321F],disrupting interaction strength

# Further lines, results first:
row,effect of a mutation on the interaction,Variant
1,decreasing interaction strength,MQADMHGKLHAALEDGFFLFPFEQQQQPNIYYDTTTDQEDRPCFSFGSTISPRSWHFEKSDKIASSQLQNLVHTQPIHLINPQILFNEEFLNLENIDSQPISKETKTTKDCTMATGPERGKKSSESTRSSSLSSLFSNDESASTFHSSFNNHDNFQKSNRNGDDIDISDTIKYETNTNAQKDIKIFQENFEFNEFPYTQDFYPYTTNYTYSKPTNIHESINSKNTDSYSQYQDQFPPHTDNIHSFNNRHYSNHKSTNCNYYNNTSNNNNASDNVYEADPFIDEPQVPSYYYPLEIAFDVEKSPPPSLQKLNSKELEFLKKLNSKLSRYAAAYSFSSSNDQDYYDKVRFQEIAYKFAKTYA [S352A;S356A;S360A]
2,disrupting interaction strength,MQADMHGKLHAALEDGFFLFPFEQQQQPNIYYDTTTDQEDRPCFSFGSTISPRSWHFEKSDKIASSQLQNLVHTQPIHLINPQILFNEEFLNLENIDSQPISKETKTTKDCTMATGPERGKKSSESTRSSSLSSLFSNDESASTFHSSFNNHDNFQKSNRNGDDIDISDTIKYETNTNAQKDIKIFQENFEFNEFPYTQDFYPYTTNYTYSKPTNIHESINSKNTDSYSQYQDQFPPHTDNIHSFNNRHYSNHKSTNCNYYNNTSNNNNASDNVYEADPFIDEPQVPSYYYPLEIAFDVEKSPPPSLQKLNSKELEFLKKLNSKLSRYAAAYSFSSSNDQDYYDKVKFQEISYKFSKTYF [R347K;S360F]
3,disrupting interaction strength,MQADMHGKLHAALEDGFFLFPFEQQQQPNIYYDTTTDQEDRPCFSFGSTISPRSWHFEKSDKIASSQLQNLVHTQPIHLINPQILFNEEFLNLENIDSQPISKETKTTKDCTMATGPERGKKSSESTRSSSLSSLFSNDESASTFHSSFNNHDNFQKSNRNGDDIDISDTIKYETNTNAQKDIKIFQENFEFNEFPYTQDFYPYTTNYTYSKPTNIHESINSKNTDSYSQYQDQFPPHTDNIHSFNNRHYSNHKSTNCNYYNNTSNNNNASDNVYEADPFIDEPQVPSYYYPLEIAFDVEKSPPPSLQKLNSKELEFLKKLNSKLSRYAAAYSFSSSNDQDYYDKVKFQEISYKFSKTYS [R347K]

# From IntAct's records for PubMed 10545448
